Data as given in the supplement of paper PMC9170038.

test system: K4 kissing-loop RNA reporter; assay: apparent KD of K4 kissing-loop reporter; higher = weaker reporter binding; settings: Eterna round: R107; input ligand: theophylline 20 uM
Protocol: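 RNA-MaP round R107: designed RNA switches with theophylline, tryptophan, arginine or FMN aptamers are transcribed on-chip within common flanks. They are titrated with a labelled K4 kissing-loop RNA reporter in RNA-MaP buffer (100 mM Tris pH 7.5, 80 mM KCl, 4 mM MgCl2), without ligand or with the indicated ligand. Median apparent KD per design.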
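Note: bound reporter read as fluorescence of individual clusters on recovered sequencing chips by microscopy, with normalized cluster intensities fitted with a binding model.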

Sequence	apparent KD of K4 kissing-loop reporter
UGACAUUGCUCAGAUACCAGACAAGAGGAUCACCCUUGUGCCAAACGUACAAUAAUAAUUGUCCCUUGGCAGCUGAGCAAUGUCU [TheoBX 14]	0.0807 µM
UUAUCAUCAGCGGCCGCCACUGCAAAUUGGAGUGAUGUUCCAAGCGUGGAUAUUGAAAUUACUAGUAGGACCGGGUUGAUGAAUU [AK 2 Ex Trypt B]	0.105 µM
CUUAAGAUAUGAGUGAUGUUUAUGUCCGAAGGAGCGUGCGAAAGUACAGGUAGGUCGCGGAUGUGAGUGAUGUUCAUGUAAGCGA [KL-XArg-A13 #analogue]	0.109 µM
UGAUAGGACAGAAGGAGCGGAAGUGAUGUUUCCAAAAGAUAUGGUCGACAAAGUCGACUUUUCCAGGUAGGUCGCUGUCCUAUCU [KL-XARG-B18]	0.0841 µM
GGUGAUGAGCACGAUACCAGCCUCGGAGCCAGUGAUGUUGGCCCAAUUUAAAAUAAGAUAGGCCCUUGGCAGCGUGACGAUGGCU [Rainle]	0.466 µM
AGAAACUUGUAUGUCGAGUGUGCGCGCGAUACCAGCCAAAUGGAUGGCCCUUGGCAGCGCUGCGAGUGAUGUUCGCCCGCUUGAC [#18 K4 Theophylline A Exclusion]	0.192 µM
GUUACGCAUGGAAGGAGCGCGAUAAUAUUAAGUGAGUGAUGUUCACAAAGAAAAUAAAUAACGCAGGUAGGUCGCCAUGUGUAAC [Ex Arginine B K4 4]	0.0978 µM
ACGUAGUUCUAGGAUACCAGCCAAGGUGCCAGGACAAAAGUCCUGGCAGUCAGUGAUGUUGGCCCUUGGCAGCCUAGAACUACGA [Omei KL Theo B Exc B v8]	0.209 µM
AAGCAGUCACUCGAAGCCAUCGAAGAUGGACGAGGACCGGUACGGCCGCCACUCGGAGUGAUGUUCCGAAGACUGCAAAAUAAAA	0.33 µM
CCAUCGCUAUUCGAUACCAGUCAUCAAAUCUUUGGUUUGAUAAAGGAGUGAUGUUCCCAAGACCCUUGGCAGCGAAUAGUGAUGG [Theophylline B K4 10]	0.175 µM
CAUAGACAAGUGAUGUUUGUCAUAACCGAAGGAGCGUCUUUAAAGACAGGUAGGUCGCGGAUUAAUUAAGUUAUGAUUCUUUUUA [JR_SSArginiA_Sub017]	0.642 µM
UGAUAGGACAGAAGGAGCGGAGGUCGUCAAAGACGACCAAUAACGUUGAUAGGAGUGAUGUUCCAGGUAGGUCGCUGUCCUAUCU [ArgBX 29 #SwitchBubble #StaticStem]	0.152 µM
AGACUACCACACUGUCAAUAGACAGUGAGCUAGGAUAUGCUGAUAAGCAGAAGGAGUGAUGUUCCUUGGUAGUCAAUAAAAUAAU [FmnAX 13 G29+U67]	0.319 µM
UCCUGCAAUGGACCACGAAAGUGGAUCGAUACCAGAGUCGAAAGACUCCCUUGGCAGCGAGUGAUGUUCGAAGCAGGUAAAUAAA [#SwitchBubble 21 #K4Late]	0.41 µM
ACGUGCACCAGUGAUGUUGGAAAAUAUGAAGGAGCGUGCGAAAGCACAGGUAGGUCGCAUAAUAGCACGAGCCACGAAAGUGGCA [#SwitchBubble 6 #K4Early #Sliding]	0.132 µM
GGCCGGAAGGCGGCCGCCACUCAGUGAUGUUGUGUGAAAGAAAAGAAAAGAAGAAAGAAAAGAAAGAGGACCGGGCCAAACGGCC	0.643 µM
UACAAACGUAGUGAUGUUACGUACUCUGAUACCAGACAACUCUAAGUCCCUUGGCAGCAGUCAUUUUGCUUAUUAUUUUCUCAAA [JR_ExcTheophyA_Sub018]	0.0985 µM
CGAGUGAUGUUCGAAGAGUUGUUAAGCGAUACCAGCUAGGAAACUGGCCCUUGGCAGCGUAAUAAGUAAAUAAAUAAAUGAUCAC [whbob_Ex_Theo_A_th63]	0.486 µM
UAAUAAAUUCCAGCGAUAUCGCUCUUCGAAGGAGCGGACGAAAGUCCAGGUAGGUCGCGAAGAGUGAUGUUCUUUGCGGCGCUGG [Omei KL Arginine A Exc A v4]	0.32 µM
UUAAUUCCGGUGGUGUGUAGAACACAGUUACGAGGACCGGUACGGCCGCCACUCGGAUGCACUUUCAGUGAUGUUGAAAGCAUCA [Same State Tryptophan A GF 1]	0.498 µM
UGACUGGACUGAAGGAGCGCUAAACUCCUAGUGAUGUUAGGAUAACGAGACAAAGUCUCGAAGCAGGUAGGUCGCAGUCUAGUCU	0.133 µM
UUAGAGAUCUCAGGAUAUCAGUGAUGUUGGUGUGCAGAUCUGAGAUAGAAUUCUAUCUCAGAUCAAUGAGAAGGGAGAUCUCAUU [AK5 Exc FMN B]	0.173 µM
AAGUAGCUCUCGGCCGCCACUCCUCAGUGAUGUUGAGAUAUUAACUGCCAAUUGGCGUAUUUAAAGAGGACCGGGAGAGCUACAA [AK2 SS Tryptophan B]	0.397 µM
UAAUUUAUGUCUUUAAUAUAAUAAUCAGAUACCAGUGAUUUAUGACACCCUUGGCAGCUGUAUAGAGUGAUGUUCUUAUGCUUAA [JR_ExcTheophyA_Sub011]	0.375 µM
GUUGAUCAUGGAAGGAGCGCCCAUUGUCGACACGAGUGAUGUUCGUGUCGUUGAUUACGAGGGCAGGUAGGUCGCCGUGUGCUUU [Rabele]	0.116 µM
GGCACUUUUGCUUGGAACCGUCAAGCUCUAUAGGAUAUGCCGAAAGGCAGAAGGAUGGACCUACAGAGUGAUGUUCUGCGUGCCU	0.134 µM
GAGAUAGAGGCGGCCGCCACUAGUGAUGUUAGUGAUGUUAGAUAGAGAAUAGAACAGAGGUAGGAUAGGACCGGGCCAGAUAGAG [whbob_SS_Tryp_B_w31]	0.077 µM
